Data taken from publication PMC6220978, “Induced conformational changes activate the peptidoglycan synthase PBP1B” (Molecular Microbiology, 2018).

Columns and labels:
Conditions in all cases: both partners purified
PBP1B I202F [1] = target: T1, PBP1B I202F (E. coli, UniProt P02919 46-844, I202F); experiment: SPR; PBP1B versions immobilised to the chip surface; LpoB injected from 19.5 nM to 10 μM; apparent KD by non-linear regression, at least three independent experiments
T1 construct: PBP1B, E. coli, residues 46-844, made by mutagenesis of pDML924; Substitution first found in the suppressor screen of Markovski et al. 2016 (LpoB bypass); source: E. coli BL21(DE3), purified (membrane extract, HisTrap, thrombin, HiTrap SP ion exchange)
T1 sequence (looked up): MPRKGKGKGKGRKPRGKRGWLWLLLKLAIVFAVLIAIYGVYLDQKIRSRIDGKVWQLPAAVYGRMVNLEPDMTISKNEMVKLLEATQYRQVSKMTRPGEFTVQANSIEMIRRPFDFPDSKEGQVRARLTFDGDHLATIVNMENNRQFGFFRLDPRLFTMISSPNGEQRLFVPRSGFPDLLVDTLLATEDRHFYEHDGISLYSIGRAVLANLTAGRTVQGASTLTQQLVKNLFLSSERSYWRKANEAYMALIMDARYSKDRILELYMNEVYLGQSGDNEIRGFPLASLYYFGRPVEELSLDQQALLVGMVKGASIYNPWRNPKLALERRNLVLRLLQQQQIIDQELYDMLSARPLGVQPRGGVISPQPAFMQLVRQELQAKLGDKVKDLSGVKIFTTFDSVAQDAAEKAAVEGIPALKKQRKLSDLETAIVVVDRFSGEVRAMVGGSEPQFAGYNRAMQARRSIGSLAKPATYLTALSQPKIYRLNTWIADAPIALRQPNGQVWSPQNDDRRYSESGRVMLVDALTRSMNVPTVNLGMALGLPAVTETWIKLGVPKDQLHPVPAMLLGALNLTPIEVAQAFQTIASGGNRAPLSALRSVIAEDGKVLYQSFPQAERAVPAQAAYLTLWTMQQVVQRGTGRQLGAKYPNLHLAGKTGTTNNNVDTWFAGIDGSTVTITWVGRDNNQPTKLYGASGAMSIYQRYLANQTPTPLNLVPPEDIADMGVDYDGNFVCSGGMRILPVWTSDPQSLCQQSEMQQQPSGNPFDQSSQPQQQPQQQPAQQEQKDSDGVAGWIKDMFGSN

PBP1B I202F [2] = target: T1, PBP1B I202F; experiment: SPR; reducing conditions: 2 mM TCEP in the SPR running buffer, immobilised PBP1B versions incubated in it for 30 min before the assay; LpoB injected from 19.5 nM to 10 μM; apparent KD
PBP1B D160C/K437C = target: T2, PBP1B D160C/K437C (E. coli, UniProt P02919 46-844, D160C | K437C); experiment: as above
T2 construct: PBP1B, E. coli, residues 46-844, made by mutagenesis of pDML924; Disulphide bridge between C160 and C437 (no free thiol groups detected); reduced in the SPR assay with 2 mM TCEP; source: E. coli BL21(DE3), purified (membrane extract, HisTrap, thrombin, HiTrap SP ion exchange)
T2 sequence (looked up): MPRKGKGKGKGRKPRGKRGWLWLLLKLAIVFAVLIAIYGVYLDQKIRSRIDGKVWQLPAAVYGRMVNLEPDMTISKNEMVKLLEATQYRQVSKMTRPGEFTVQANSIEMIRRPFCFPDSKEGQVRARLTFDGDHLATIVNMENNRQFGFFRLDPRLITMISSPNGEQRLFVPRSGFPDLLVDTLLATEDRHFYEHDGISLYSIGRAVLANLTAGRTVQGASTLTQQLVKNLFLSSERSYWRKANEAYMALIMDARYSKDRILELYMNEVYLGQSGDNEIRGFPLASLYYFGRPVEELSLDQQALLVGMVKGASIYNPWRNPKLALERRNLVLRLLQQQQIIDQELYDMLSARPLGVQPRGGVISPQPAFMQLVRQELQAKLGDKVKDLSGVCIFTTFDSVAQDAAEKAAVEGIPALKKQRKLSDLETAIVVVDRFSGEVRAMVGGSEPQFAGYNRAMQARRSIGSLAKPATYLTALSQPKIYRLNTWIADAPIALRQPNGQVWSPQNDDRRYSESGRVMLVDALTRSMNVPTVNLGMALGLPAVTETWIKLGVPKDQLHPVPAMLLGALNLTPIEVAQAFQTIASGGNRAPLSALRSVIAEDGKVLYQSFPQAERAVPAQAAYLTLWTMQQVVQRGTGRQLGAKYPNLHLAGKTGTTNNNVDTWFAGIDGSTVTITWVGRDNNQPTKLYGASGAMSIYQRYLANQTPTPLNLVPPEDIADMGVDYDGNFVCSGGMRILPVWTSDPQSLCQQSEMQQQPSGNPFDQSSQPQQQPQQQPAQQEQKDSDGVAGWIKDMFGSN

B1: LpoB (natural protein, E. coli)
chain: VGQREPAPVEEVKPAPEQPAEPQQPVPTVPSVPTIPQQPGPIEHEDQTAPPAPHIRHYDWNGAMQPMVSKMLGADGVTAGSVLLVDSVNNRTNGSLNAAEATETLRNALANNGKFTLVSAQQLSMAKQQLGLSPQDSLGTRSKAIGIARNVGAHYVLYSSASGNVNAPTLQMQLMLVQTGEIIWSGKGAVSQQ
notes: LpoB, E. coli; also called lipoprotein LpoB; source: E. coli BL21(DE3), purified (HisTrap, Superdex 200), as in Egan et al. 2014
Kd (PBP1B I202F [1]): 26 nM
Kd (PBP1B I202F [2]): 17 nM
Kd (PBP1B D160C/K437C): 2040 nM
